Measured values taken from publication PMC8318589, “Structure and analysis of nanobody binding to the human ASIC1a ion channel” (eLife, 2021).
Residue numbers refer to the chain shown, from its start.

How the values were obtained:
[1] = molecular target: T1, human ASIC1a-Flag (human) (UniProt P78348)
T1 sequence: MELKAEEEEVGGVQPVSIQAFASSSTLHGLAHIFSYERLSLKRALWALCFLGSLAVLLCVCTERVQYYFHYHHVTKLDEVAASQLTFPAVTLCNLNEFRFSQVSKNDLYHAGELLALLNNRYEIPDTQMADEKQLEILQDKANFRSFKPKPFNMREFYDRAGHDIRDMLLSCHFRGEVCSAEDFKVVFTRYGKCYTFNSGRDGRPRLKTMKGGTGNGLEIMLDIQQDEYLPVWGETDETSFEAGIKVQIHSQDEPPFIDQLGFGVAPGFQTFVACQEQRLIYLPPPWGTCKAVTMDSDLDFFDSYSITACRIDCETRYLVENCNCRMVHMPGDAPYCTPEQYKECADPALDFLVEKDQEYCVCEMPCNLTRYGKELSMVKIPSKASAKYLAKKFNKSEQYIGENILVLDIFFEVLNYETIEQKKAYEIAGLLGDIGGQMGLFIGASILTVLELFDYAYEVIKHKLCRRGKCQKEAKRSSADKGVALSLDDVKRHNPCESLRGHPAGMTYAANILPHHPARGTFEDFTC

[2] = molecular target: T2, hASIC1a comprising amino acids 12–478 with a Strep Tag II in the N-terminus (human, UniProt P78348-2)
human ASIC1a-Flag [3] = molecular target: T3, human ASIC1a-Flag (Homo sapiens, ASIC1a (528 aa isoform), UniProt P78348-2); assay: immunostaining of cells or tissue; transfected cells on coverslips incubated with Nb (1 nM, 1 hr, on ice) in the medium, washed, fixed, permeabilized; Nb detected by anti-HA, channel by anti-Flag; confocal microscopy; conditions: one partner purified
T3 construct: human acid-sensing ion channel 1a (ASIC1a); this molecule is used for them; also called hASIC1a; hASIC1a-Flag; source: HEK293T / HEK-293 cells, transfected (pcDNA3.1), on cells

[4] = molecular target: T2, hASIC1a comprising amino acids 12–478 …; assay: SPR; Biacore S200; hASIC1a amine-coupled to a CM5 chip (diluted in sodium acetate pH 5.0, 0.05% DDM); Nb.C1 injected at 0.41-100 nM, 30 µL/min; association 100 or 300 s, dissociation 300 or 3600 s; two protein preparations; global fits to association time courses; conditions: both partners purified
human ASIC1a-Flag [5] = molecular target: T3, human ASIC1a-Flag; assay: immunostaining of cells or tissue; chase: live HEK293 cells transfected with hASIC1a-Flag incubated with 10 nM Nb.C1-HA for 30 min at 18°C, washed, followed for 0-4 hr with a wash each hour, then fixed; Nb.C1 fluorescence normalised to time 0; koff estimated from the lack of decay; conditions: one partner purified
mouse ASIC3-Flag = molecular target: T4, mouse ASIC3-Flag (Mus musculus, ASIC3, UniProt Q6X1Y6); assay: immunostaining of cells or tissue; transfected cells on coverslips incubated with Nb (1 nM, 1 hr, on ice) in the medium, washed, fixed, permeabilized; Nb detected by anti-HA, channel by anti-Flag; confocal microscopy; conditions: one partner purified
T4 construct: mouse acid-sensing ion channel 3 (ASIC3); also called mASIC3; source: transfected cells, on cells

chicken ASIC1-Flag = molecular target: T5, chicken ASIC1-Flag (Gallus gallus, ASIC1, UniProt Q1XA76); assay: as above; conditions: one partner purified
T5 construct: chicken acid-sensing ion channel 1 (cASIC1); also called cASIC1; source: transfected cells, on cells

mouse ASIC1a-Flag = molecular target: T6, mouse ASIC1a-Flag (Mus musculus, ASIC1a, UniProt Q6NXK8-1); assay: as above; conditions: one partner purified
T6 construct: mouse acid-sensing ion channel 1a (ASIC1a); also called mASIC1a; mASIC1; source: transfected cells, on cells

mouse ASIC2a-Flag = molecular target: T7, mouse ASIC2a-Flag (Mus musculus, ASIC2a (512 aa isoform), UniProt Q925H0-1); assay: as above; conditions: one partner purified
T7 construct: mouse acid-sensing ion channel 2a (ASIC2a); also called mASIC2a; source: transfected cells, on cells

[6] = molecular target: T2, hASIC1a comprising amino acids 12–478 …; assay: SPR + immunostaining of cells or tissue; equilibrium constant worked out from the smallest kon of the SPR (purified, immobilised hASIC1a) and the upper limit of koff from the live-cell chase (hASIC1a on HEK293 cells); conditions: one partner purified
[7] = molecular target: T2, hASIC1a comprising amino acids 12–478 …; assay: SEC; purified Nb.C1 added to crude membranes of 293 F cells expressing Strep-tagged hASIC1a (4°C, 3 hr) before solubilisation with 1% DDM; Strep Tactin XT affinity purification, then Superdex 200 Increase; peak run on Coomassie-stained SDS-PAGE; conditions: one partner purified
[8] = molecular target: the molecule itself; assay: cryo-EM structure; hASIC1a-Nb.C1 complex in DDM, pH 7.4, 20 mM HEPES, 150 mM NaCl, 5 mM CaCl2, 3.8 mg/mL; C3 symmetry imposed

T4 sequence (Q6X1Y6 whole entry): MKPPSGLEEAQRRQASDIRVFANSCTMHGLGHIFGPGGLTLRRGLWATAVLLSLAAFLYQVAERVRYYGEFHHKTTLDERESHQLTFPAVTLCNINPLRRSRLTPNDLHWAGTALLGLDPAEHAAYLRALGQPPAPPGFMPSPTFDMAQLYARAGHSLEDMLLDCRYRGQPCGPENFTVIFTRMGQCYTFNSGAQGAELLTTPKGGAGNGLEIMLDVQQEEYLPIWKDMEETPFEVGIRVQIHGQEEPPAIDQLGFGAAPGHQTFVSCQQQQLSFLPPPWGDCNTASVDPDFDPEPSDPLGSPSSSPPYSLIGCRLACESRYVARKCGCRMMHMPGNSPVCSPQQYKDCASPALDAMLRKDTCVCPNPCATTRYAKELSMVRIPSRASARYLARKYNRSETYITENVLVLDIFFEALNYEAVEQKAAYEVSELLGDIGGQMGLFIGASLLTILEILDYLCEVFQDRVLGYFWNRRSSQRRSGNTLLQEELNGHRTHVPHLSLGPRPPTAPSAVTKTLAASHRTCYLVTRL
T7 sequence (Q925H0 whole entry, canonical isoform): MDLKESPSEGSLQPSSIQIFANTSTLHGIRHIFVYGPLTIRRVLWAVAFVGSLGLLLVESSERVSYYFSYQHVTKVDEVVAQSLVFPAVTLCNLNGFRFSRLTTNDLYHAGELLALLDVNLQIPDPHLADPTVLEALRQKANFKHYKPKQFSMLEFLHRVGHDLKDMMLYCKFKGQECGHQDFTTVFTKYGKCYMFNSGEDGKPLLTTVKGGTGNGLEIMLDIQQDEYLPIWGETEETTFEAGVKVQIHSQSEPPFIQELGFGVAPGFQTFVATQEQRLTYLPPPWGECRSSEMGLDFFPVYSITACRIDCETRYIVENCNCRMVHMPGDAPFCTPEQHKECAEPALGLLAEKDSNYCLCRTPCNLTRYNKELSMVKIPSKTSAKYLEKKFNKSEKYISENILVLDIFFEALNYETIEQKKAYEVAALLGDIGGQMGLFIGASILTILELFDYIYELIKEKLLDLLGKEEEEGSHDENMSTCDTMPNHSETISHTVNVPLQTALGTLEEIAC

In the case of “psalmotoxin-1 (PcTx1) (from UniProt P60514 1-40) (peptide)”, the time constant of recovery of pH 6.0-induced currents after 60 s with 10 nM PcTx1, oocytes expressing hASIC1a (two-electrode voltage clamp) [1] is reported as 220 s.

B1: E9-3 (VHH)
VHH: QLQLVESGGDLVQPGGSLRLTCAASGFTFSSLTMSWHRQALGKERELVAAIGEATGATYYVESVKGRFIISRDNAKNTVFLQMNSLKPEDTAVYYCKAASSSNDYWGQGTQVTVSS
B1: binds [2].

B2: 2B-D4 (VHH)
VHH: QVQLVESGGGLVQAGGSLRLSCAASGIAFSRYTMGWYRQAPGKQRELVADFSREGTTRYADAVKGRFTISRDNAKNTVYLEMNSLKPEDTAVYYCNARRPFLGNLANNWGRGTQVTVSS
B2: binds [2].

B3: F7 (VHH)
VHH: QVQLVESGGGLVMAGGSLSLSCAASGRLFSTWTMGWFRQAPGKEREFVGAIRRVGDSPSYADSVKGRFTISRDSTKNALYLKMNSLKPEDTAVYYCAAKRFGNEYEYWGQGTQVTVSS
B3: binds [2].

B4: G11 (VHH)
VHH: B3 VHH with V2L, L28T, G35A, V54I, S74N, T75A
B4: binds [2].

B5: A12-2 (VHH)
VHH: B3 VHH with V2L
B5: binds [2].

B6: B11 (VHH)
VHH: QLQLVESGGGLVQPGGSLRLSCAASGLTLDNYAIGWFRQVPGKEREDVSCISTSHGSLHYANSVKGRFTISVDAAENTVYLQMNSLNAEDTAVYFCAARGFDSDCSVYGMDFWGKGTPVTVSS
B6: binds [2].

B7: Nb D10 (VHH)
VHH: QVQLVESGGGLVQPGGSLRLSCAASGFTFNRATMSWYRQAPGKERELVATIGSFGISTNYTDSVKGRFTISRDNAKNTLYLQMNSLKPEDTAVYYCNARYRSTYPWGQGTQVTVSS
notes: alpaca VHH selected against hASIC1a; source: E. coli WK6, periplasm
B7: binds (human ASIC1a-Flag [3]).

B8: Nb C4 (VHH)
VHH: B7 VHH with N30S, T33A, L47M, T61S, L79V, Q82H
notes: alpaca VHH selected against hASIC1a; The name is read out of the printed "C1-4-5"; also called C4 (printed within "C1-4-5"); source: E. coli WK6, periplasm
B8: binds (human ASIC1a-Flag [3]).

B9: Nb.C1 (VHH)
VHH: B7 VHH with G15R, N30S, T33A, L47M, A49S, I56V, T61S, L79V, Q82H, T103S
notes: alpaca VHH selected by phage display against hASIC1a; Expressed from the phagemid pADL-22c; also called Nb.1C; Nb.C1-HA; source: E. coli WK6, periplasm, purified (Ni-NTA); not shown: HA, C-terminal, kept
With B9 the kon [4] was 68000 to 220000 M⁻¹ s⁻¹, the koff (human ASIC1a-Flag [5]) was ≤ 1.4e-05 s⁻¹ and the binding result (mouse ASIC3-Flag) was “no binding (tested: 1 nM)”. B9: no binding (tested: 1 nM) (chicken ASIC1-Flag); no binding (tested: 1 nM) (mouse ASIC1a-Flag); no binding (tested: 1 nM) (mouse ASIC2a-Flag). For the same molecule, the Kd [6] was ≤ 200 pM and the “stoichiometry N” value [7] was 1.

B10: Nb H10 (VHH)
VHH: B7 VHH with S21T, N30S, I56V, T61A, L79A, Q82Y, S85N, R99H
notes: as for B7
B10: binds (human ASIC1a-Flag [3]).

B11: G4-3 (VHH)
VHH: QVQLVESGGGLVQPGGSLRLSCAASGSTLDYYAIGWFRQAPGKEREGVSCISRSGGSTYYADSVKGRFTISRDNAKNTVYLQMNSLKPEDTAVYYCAADRGAVGGIFNSDYDAQNSLPPCSYGMDYWGKGTLVTVSS
B11: binds [2].

B12: hASIC1a comprising amino acids 12–478 with a Strep Tag II in the N-terminus (domain or fragment, human, UniProt P78348-2 12-478, looked up)
chain: GVQPVSIQAFASSSTLHGLAHIFSYERLSLKRALWALCFLGSLAVLLCVCTERVQYYFHYHHVTKLDEVAASQLTFPAVTLCNLNEFRFSQVSKNDLYHAGELLALLNNRYEIPDTQMADEKQLEILQDKANFRSFKPKPFNMREFYDRAGHDIRDMLLSCHFRGEVCSAEDFKVVFTRYGKCYTFNSGRDGRPRLKTMKGGTGNGLEIMLDIQQDEYLPVWGETDETSFEAGIKVQIHSQDEPPFIDQLGFGVAPGFQTFVACQEQRLIYLPPPWGTCKAVTMDSDLDFFDSYSITACRIDCETRYLVENCNCRMVHMPGDAPYCTPEQYKECADPALDFLVEKDQEYCVCEMPCNLTRYGKELSMVKIPSKASAKYLAKKFNKSEQYIGENILVLDIFFEVLNYETIEQKKAYEIAGLLGDIGGQMGLFIGASILTVLELFDYAYEVIKHKLCRRGKCQKEAKRS
notes: human acid-sensing ion channel 1a (ASIC1a), residues 12-478 (50 a.a. carboxyl terminal deletion); Trimer in the cryo-EM structure; also called human ASIC1a; recombinant hASIC1a protein; source: HEK293F (FreeStyle 293 F) cells, transfected (pcDNA3.1); crude membranes, solubilised in DDM, purified (Strep Tactin XT, SEC); not shown: Strep Tag II, N-terminal, kept
With B12 the “stoichiometry N” value [8] was 3.

B13: G10 (VHH)
VHH: QVQLVESGGGLVQPGGSLRLSCAASGGTLDVYTIGWFRQAPGKEREGLSCLSSSDGSTYYADSVKGRFTISRDNAKNTMYLQMNSLKPEDTAVYYCVAGAWTHVQAMCVTCFGCDWGQGTQVTVVS
B13: binds [2].

B14: 2B-E6 (VHH)
VHH: QVQLVESGGGLVQPGGSLRLSCAASGRTVSSYVMGWYRQAPGKEREFVASVRWTTGLTYVEDSVKGRFTISRDNTKSTVDLQMNSLKPEDTAIYYCNARPLVMLGPTEAGYWGQGTQVTVSS
B14: binds [2].

B15: G4 (VHH)
VHH: QLQLVESGGGLVQPGGSLRLTCAASGFALDDYTIGWFRQAPGNEREGVACMHGGGIHIADSLKGRITISRDNAKNTVYLQMNSLKPEDTAVYYCAARLATATRWTCKLSDMDYWGKGTLVTVSS
B15: binds [2].

B16: H7 (VHH)
VHH: QLQLVESGGGLVQPGGSLRLSCAASGGTIDYYTIGWFRQAPGKEREGVSCIISKADSTKYADTVEGRFTISSDKAKNTVYLQMNSLQPEDTGVYFCAAYRVLIAGRNPGCLLNPPAEYDYWGQGTQVTVSS
B16: binds [2].

B17: 1A-B1 (VHH)
chain: QLQLVESGGGLVQTGESLRLSCVASGIAFSRYIVGWYRQAPGKERELVASVRRNSGTNYVGDLKGGFFISSKNANNTVYQEMNNLKPADDAVYYCSTARPFLGDLPNNCGYWTQVTVSS
B17: binds [2].
